# Measurements published in patent US20260234290, “Antibodies to Stat3 Decoy Oligonucleotide” (The Regents of the University of California, published 2026).
# What was measured:
# SP1-B3 Fab = SP1-B3 Fab (UniProt A0A0B4J1U7;A0A087WSX0 SEQ:1-120,SEQ:1-115); test: BLI; 2 uM Fab; CS3D on streptavidin tips; RT; RAPID-sorted clone; conditions: myc tag; Ni-NTA purified from E. coli BL21(DE3) periplasm; label: biotin; cyclic 15-mer double-stranded decoy
# Method: (§1) All buffers were filter sterilized with […] filters prior to preparing samples. Black 384 well microplates were used to set up BLI plates and streptavidin tips were purchased by Sartorius. Kinetic constants of Fabs were determined by Octet RED384 system with continuous shaking at 1000 rpm in RT. Prior to the experiment, biological tips (model name) were presoaked in buffer to allow for equilibration for 1 hour. Data were analyzed using 1:1 interaction model on the ForteBio data analysis software 12.0.
# 4E4 Fab = 4E4 Fab (UniProt P01764;A0A075B6I4 SEQ:1-116,SEQ:1-110); test: BLI; 2 uM Fab; RT; described as weak binding; conditions: myc tag; Ni-NTA purified from E. coli BL21(DE3) periplasm; label: biotin; cyclic 15-mer double-stranded decoy
# Method: as §1
# 4E4 Fab, sequence (P01764 other isoform, or with tags, fused parts or gaps, chain 1 of 2): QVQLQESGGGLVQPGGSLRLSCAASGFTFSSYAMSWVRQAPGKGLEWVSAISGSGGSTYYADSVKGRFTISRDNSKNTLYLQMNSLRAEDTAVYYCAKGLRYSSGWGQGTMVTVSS
# 4E4 Fab, sequence (A0A075B6I4 other isoform, or with tags, fused parts or gaps, chain 2 of 2): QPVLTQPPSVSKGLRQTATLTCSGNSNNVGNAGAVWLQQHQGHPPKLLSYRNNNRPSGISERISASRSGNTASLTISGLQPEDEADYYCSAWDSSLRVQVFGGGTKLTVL
# SP1-B3 Fab, sequence (A0A0B4J1U7 other isoform, or with tags, fused parts or gaps, chain 1 of 2): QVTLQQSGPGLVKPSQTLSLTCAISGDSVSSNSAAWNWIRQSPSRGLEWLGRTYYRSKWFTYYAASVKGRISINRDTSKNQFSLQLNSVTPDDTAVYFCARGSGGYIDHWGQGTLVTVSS
# SP1-B3 Fab, sequence (A0A087WSX0 other isoform, or with tags, fused parts or gaps, chain 2 of 2): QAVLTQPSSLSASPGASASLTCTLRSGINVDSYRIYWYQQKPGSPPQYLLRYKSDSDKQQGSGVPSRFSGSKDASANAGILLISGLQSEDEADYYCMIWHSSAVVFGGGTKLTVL
binder,measurement,setting,value
CS3D (cyclic STAT3 decoy) (dsDNA) DNA 1: CATTTCCCGTAAATC DNA 2: GATTTACGGGAAATG,koff,SP1-B3 Fab,0.0211 s⁻¹
same,koff,4E4 Fab,0.111 s⁻¹
